The target of experiment [1] is CD9(FL)-ALP conjugate (human; bovine). In words: HI-1000 capture immunoassay; calibrator C5, 30 ng/mL; run 2.
The target of experiment [2] is CD9(ECD)-ALP conjugate (human; bovine). The experiment in a line: HI-1000 capture immunoassay; primary calibrator C4, 50.05 ng/mL; run 1.
Experiment [3] concerns the target CD9(FL)-ALP conjugate (human; bovine). The experiment in a line: HI-1000 capture immunoassay; calibrator C2, 3.7 ng/mL; mean of 3.
The target in experiment [4] is CD9(ECD)-ALP conjugate (human; bovine). In words: HI-1000 capture immunoassay; secondary calibrator C4, 129.62 U/L; run 1.
The target is the same in experiment [5]. In words: HI-1000 capture immunoassay; secondary calibrator C5; mean of 3 aliquots.
Experiment [6] has as its target CD9(FL)-ALP conjugate (human; bovine). In words: HI-1000 capture immunoassay; calibrator C2, 5.48 mU/L; run 1.
Experiment [7] has the same target. The experiment in a line: HI-1000 capture immunoassay; calibrator C2, 5.48 mU/L; run 2.
The target in experiment [8] is CD9(ECD)-ALP conjugate (human; bovine). In words: HI-1000 capture immunoassay; thawed aliquot 1 of secondary calibrator C5.
Experiment [9] has the same target. In words: HI-1000 capture immunoassay; secondary calibrator C5, 387.01 U/L; run 3.
Experiment [10] deals with CD9(FL)-ALP conjugate (human; bovine). In words: HI-1000 capture immunoassay; calibrator C5, 30 ng/mL; run 3.
Experiment [11] addresses CD9(ECD)-ALP conjugate (human; bovine). The experiment in a line: HI-1000 capture immunoassay; secondary calibrator C2, 3.84 U/L; run 1.
The target in experiment [12] is CD9(FL)-ALP conjugate (human; bovine). The experiment in a line: HI-1000 capture immunoassay; calibrator C1, 1.0 ng/mL; run 2.
In experiment [13] the target is CD9(ECD)-ALP conjugate (human; bovine). The experiment in a line: HI-1000 capture immunoassay; secondary calibrator C1, 1.02 U/L; mean of 3.
The target is the same in experiment [14]. The experiment in a line: HI-1000 capture immunoassay; secondary calibrator C1, 1.02 U/L; run 1.
In experiment [15] the target is CD9(FL)-ALP conjugate (human; bovine). In words: HI-1000 capture immunoassay; calibrator C1, 1.83 mU/L; mean of 3.
Experiment [16] has the same target. The experiment in a line: HI-1000 capture immunoassay; calibrator C1, 1.83 mU/L; run 1.
For experiment [17], the target named is CD9(ECD)-ALP conjugate (human; bovine). The experiment in a line: HI-1000 capture immunoassay; primary calibrator C1, 1.52 ng/mL; run 2.
The target of experiment [18] is CD9(FL)-ALP conjugate (human; bovine). The experiment in a line: HI-1000 capture immunoassay; calibrator C4, 21.93 mU/L; run 1.
Experiment [19] deals with CD9(ECD)-ALP conjugate (human; bovine). In words: HI-1000 capture immunoassay; thawed aliquot 3 of secondary calibrator C1.
In experiment [20] the target is CD9(FL)-ALP conjugate (human; bovine). In words: HI-1000 capture immunoassay; calibrator C1, 1.0 ng/mL; run 1.

Chain of CD9(ECD)-ALP conjugate (human; bovine) (chain, as listed by the source, chain 1 of 2): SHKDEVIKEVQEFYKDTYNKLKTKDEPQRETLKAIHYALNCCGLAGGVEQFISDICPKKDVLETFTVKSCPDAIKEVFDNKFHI
Chain of CD9(ECD)-ALP conjugate (human; bovine) (P19111 20-506, chain 2 of 2): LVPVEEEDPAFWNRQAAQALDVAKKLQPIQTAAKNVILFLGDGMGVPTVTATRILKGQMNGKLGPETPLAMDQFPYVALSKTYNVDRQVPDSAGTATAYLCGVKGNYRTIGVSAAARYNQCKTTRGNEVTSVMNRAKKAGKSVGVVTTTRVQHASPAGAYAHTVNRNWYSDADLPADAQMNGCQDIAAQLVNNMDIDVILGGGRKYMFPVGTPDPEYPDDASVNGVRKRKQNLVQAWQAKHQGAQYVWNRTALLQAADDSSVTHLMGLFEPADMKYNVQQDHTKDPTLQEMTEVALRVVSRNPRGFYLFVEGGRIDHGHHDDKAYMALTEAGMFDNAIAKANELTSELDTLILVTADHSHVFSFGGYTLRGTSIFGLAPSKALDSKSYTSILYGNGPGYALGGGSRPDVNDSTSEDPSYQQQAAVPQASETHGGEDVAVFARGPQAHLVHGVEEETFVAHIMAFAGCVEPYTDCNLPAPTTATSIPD
Chain of CD9(FL)-ALP conjugate (human; bovine) (chain, as listed by the source, chain 1 of 2): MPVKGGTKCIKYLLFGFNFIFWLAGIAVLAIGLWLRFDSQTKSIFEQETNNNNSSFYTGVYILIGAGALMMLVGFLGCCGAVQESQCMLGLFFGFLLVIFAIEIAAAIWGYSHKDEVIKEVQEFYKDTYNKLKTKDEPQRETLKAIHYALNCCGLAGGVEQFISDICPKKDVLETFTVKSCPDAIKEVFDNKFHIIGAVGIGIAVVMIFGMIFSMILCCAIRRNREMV
Chain of CD9(FL)-ALP conjugate (human; bovine) (P19111 20-506, chain 2 of 2): as the sequence (P19111 20-506, chain 2 of 2) above

For the substance anti-CD9 antibody (Clone: H19a), the Count value in [1] worked out at 26900 count; in experiment [2] it was 22400 count; in experiment [4], 71000 count; in [6], 3630 count; in experiment [7], 3520 count; in experiment [8], 36500 count. Also, the Count value in experiment [9] was 209000 count; in experiment [10] it was 26100 count; in experiment [11], 2420 count; in experiment [12], 1550 count; in [14], 975 count; in experiment [16], 1580 count. The Count value in experiment [17] amounted to 1100 count; in experiment [18], 13400 count; in experiment [19] it was 805 count; in experiment [20], 1420 count. The Count value (av) in [3] was found to be 4280 count; in experiment [5] it was 36300 count; in [13] it was 941 count; in [15], 1540 count.

These data come from patent US20240118272A1.
